Test [1] addresses soluble human insulin mini-receptor (mIR) (human, UniProt P06213-2 28-746, limits assumed). The experiment in a line: FP vs FITC-RP9 on mIR.
For test [2], the target named is T1, IGF-1R on cells (MCF-7, MiaPaCa, FDC-P2 cells expressing human IGF-1R) (human, UniProt P08069 31-1367). The test is described as follows: cell-based or functional assay.
Test [3] deals with T2, His-tagged soluble recombinant human IGF-IR (srhIGF-1R-his) (human, UniProt P08069 31-935).
T2 construct: extracellular domain; Bought construct; not shown: His tag
The experiment in a line: ALPHAScreen competition against b-hIGF-1 on srhIGF-1R-his. In general terms: In Alpha technology, singlet oxygen from a donor bead excites a nearby acceptor bead.

For test [4], the target named is T1, IGF-1R on cells (MCF-7, MiaPaCa, FDC-P2 …). The test is described as follows: cell-based or functional assay. The source holds these as a separate data set.
Test [5] concerns the target T2, His-tagged soluble recombinant human …. The experiment in a line: ALPHAScreen competition against b-hIGF-1 on srhIGF-1R-his. The source holds these as a separate data set.
Test [6] deals with T3, human insulin receptor (HIR) (human, UniProt P06213-2 28-1370, limits assumed).
T3 construct: detergent-solubilized receptor
T3 sequence (P06213 other isoform, or with tags, fused parts or gaps limits assumed): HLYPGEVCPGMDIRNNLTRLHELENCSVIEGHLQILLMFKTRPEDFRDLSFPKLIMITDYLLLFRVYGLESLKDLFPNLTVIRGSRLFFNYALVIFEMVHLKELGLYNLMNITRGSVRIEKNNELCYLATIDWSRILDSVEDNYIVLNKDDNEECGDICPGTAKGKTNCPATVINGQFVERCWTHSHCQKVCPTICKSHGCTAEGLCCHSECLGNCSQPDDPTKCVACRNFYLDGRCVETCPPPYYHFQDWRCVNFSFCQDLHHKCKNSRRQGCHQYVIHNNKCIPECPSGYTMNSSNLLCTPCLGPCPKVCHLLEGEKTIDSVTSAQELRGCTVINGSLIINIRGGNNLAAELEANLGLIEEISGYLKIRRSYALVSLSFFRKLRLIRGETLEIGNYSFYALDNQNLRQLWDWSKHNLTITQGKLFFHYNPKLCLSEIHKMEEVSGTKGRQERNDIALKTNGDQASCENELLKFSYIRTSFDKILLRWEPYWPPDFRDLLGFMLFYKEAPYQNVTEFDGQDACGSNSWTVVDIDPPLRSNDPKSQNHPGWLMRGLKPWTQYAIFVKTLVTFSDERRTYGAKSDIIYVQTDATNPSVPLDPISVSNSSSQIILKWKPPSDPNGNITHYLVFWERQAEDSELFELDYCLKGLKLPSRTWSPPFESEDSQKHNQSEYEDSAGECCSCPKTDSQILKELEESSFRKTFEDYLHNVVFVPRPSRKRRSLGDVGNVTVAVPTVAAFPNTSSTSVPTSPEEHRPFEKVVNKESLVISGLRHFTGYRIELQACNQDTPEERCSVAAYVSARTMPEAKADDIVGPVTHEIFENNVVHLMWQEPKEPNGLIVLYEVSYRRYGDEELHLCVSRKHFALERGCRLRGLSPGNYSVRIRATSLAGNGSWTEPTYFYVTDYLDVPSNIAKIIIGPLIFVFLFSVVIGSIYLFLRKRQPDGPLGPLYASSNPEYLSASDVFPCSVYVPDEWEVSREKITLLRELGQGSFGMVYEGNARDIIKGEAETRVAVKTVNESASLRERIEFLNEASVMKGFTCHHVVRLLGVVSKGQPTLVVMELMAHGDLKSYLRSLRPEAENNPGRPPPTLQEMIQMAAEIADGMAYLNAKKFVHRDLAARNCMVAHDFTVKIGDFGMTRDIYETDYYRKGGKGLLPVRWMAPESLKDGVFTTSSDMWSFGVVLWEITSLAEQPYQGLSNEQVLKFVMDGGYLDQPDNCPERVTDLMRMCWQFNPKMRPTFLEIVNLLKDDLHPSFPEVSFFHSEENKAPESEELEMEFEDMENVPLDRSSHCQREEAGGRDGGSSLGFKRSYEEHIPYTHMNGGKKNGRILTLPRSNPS
The test is described as follows: 125I-insulin competition, solubilized HIR.

Test [7] has as its target T2, His-tagged soluble recombinant human …. The experiment in a line: ALPHAScreen competition against b-hIGF-1 on srhIGF-1R-his. This is another data set of the same source.
The target of test [8] is T1, IGF-1R on cells (MCF-7, MiaPaCa, FDC-P2 …). The test is described as follows: cell-based or functional assay. This is another data set of the same source.

Read-outs that look alike come from different tables or passages of the source.

In general, IC50 refers to the concentration needed to halve the response being measured. With FHENFYDWFVRQVSKK [H2C], in test [1], half-maximal inhibition (IC50) required 770 nM.

B1: D112-12-RP30-IGF (peptide)
chain: ADYKDCWARPCGDAANFYDWFVQQASKKGGSGGSGGSGGSSFYSCLESLVNGGAERSDGQWEGCRAAAGAPVPYPDPLEPRPG
For B1, the “Cellular EC50 (M), MCF-7 cell proliferation” value in test [2] was 2.5e-07 M. Also, the IC50 in test [3] and in test [5] was 170 nM each time. Moreover, in test [4], the “Cellular EC50 (M), MiaPaCa cell proliferation” value was found to be 2.2e-06 M.
The Kd is the equilibrium constant for the complex coming apart. Read a low Kd as a tighter complex. With RWPNFYGYFESLLTHFS [S257], in test [6], the Kd is 1400 nM.
In the case of GIISQSCPESFYDWFAGQVSDPWWCW [G33], the “Cellular EC50 (M), MCF-7 cell proliferation” value in test [2] came to 3e-07 M. Besides, the IC50 in test [7] and in test [5] was 600 nM throughout. Moreover, the “Cellular EC50 (M), FDC-P2 cell proliferation” value in test [8] was determined as 2e-06 M.

For the origin of these results see patent US20070004634A1 (published 2007).
